# Experiments:
# [1] = target: phosphorylated pS674 peptide of UHRF1 (human (RefSeq NP_037414.3)); assay: SPR; BIAcore; biotinylated peptides on a streptavidin chip (about 250 RU); GST-BRCA1-BRCT as analyte, 39 nM to 2.5 μM (legend: 17 nM to 2.5 μM), 30 μl min^-1; 150 mM NaCl, 0.005% Polysorbate 20, 10 mM HEPES pH 7.4, 1 mM PMSF
# BRCA1 = BRCA1 (UniProt P38398); assay: co-immunoprecipitation; settings: reference: wild type; sites S674
# BRCA1 BRCT domain = BRCA1 BRCT domain (UniProt P38398); assay: far-Western, GST-BRCT overlay on His-UHRF1; settings: reference: kinase-treated His-UHRF1 WT; sites S674
substance,measurement,setting,value
GST-BRCT (wild type) domain of BRCA1 (domain or fragment),Kd,[1],356 nM
UHRF1 (from UniProt Q96T88-2) S674A,binding against the reference,BRCA1,weaker
UHRF1 (from UniProt Q96T88-2) kinase-treated His-UHRF1 S674A,binding against the reference,BRCA1 BRCT domain,lost

# Source: paper PMC4728409
